Source: US10227575B2, “Multi-domain enzymes having cutinase activity, compositions comprising same and uses thereof” (OZYMES, priority 2015, dated 2019)
Values joined by “and” are separate entries in the source; they are usually repeats but may differ in a detail not shown here. Equal entries are not always repeated. Where two headings read alike, the source gives them in different places. Marks after values point to notes of the source that are not given here.

Experiments:
[1] = Activity of crude culture supernatants from bioreactor; assay type: biochemical; conditions: pNP-dodecanoate
[2] = Specific activity of purified enzymes (standard esterase assay); assay type: biochemical
Procedure, shortened: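 Purified enzymes tested on pNP-esters, including pNP-palmitate, at 0.8 mM final in 50 mM Tris/HCl pH 8.0 (substrate predissolved in 2-propanol). p-Nitrophenol release followed at 410 nm (ε 15 mM^−1 cm^−1); 1 U = 1 μmol pNP/min, specific activity given as U/mg protein.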

[3] = Circular dichroism spectroscopy, melting temperature and refolding; assay type: physicochemical
Procedure, shortened: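 Purified protein at 0.15 mg/mL where possible; far-UV CD spectra recorded 190–250 nm against a buffer blank. Unfolding followed at 222 nm from 20 to 90° C. at 2° C. min-1, held 5 min at maximum, then refolding tracked on the reverse ramp; Tm, ΔH, ΔS, ΔG calculated where applicable.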

[4] = Enzyme substrate profiles, esterase assays; assay type: biochemical; conditions: highest activity towards a specific substrate set to 100%
Procedure, shortened: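 Hydrolysis of pNP-ester substrates, final 0.8 mM (from 8 mM 2-propanol stock), in 50 mM Tris/HCl pH 8.0, followed as pNP release at 410 nm (ε 15 mM^−1 cm^−1). One U = 1 μmol pNP/min; specific activity as U/mg protein.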

[5] = Enzymatic activity in the presence of organic solvents; assay type: biochemical; conditions: buffer only = 100%
Procedure: Enzyme activity in various organic solvents was studied over a concentration range of 1-30% at room temperature. pNP-palmitate was completely dissolved in 2-propanol (8 mM) and then added to 50 mM Tris/HCl buffer pH 8.0 containing up to 30% organic solvent to give a final substrate concentration of 0.8 mM. The reaction was started by addition of enzyme and the formation of pNP was assayed as described above in Example 20.1.

pH dependence of enzymes = assay type: biochemical; conditions: for Relative activity (%): highest activity = 100%
Procedure: The influence of different pH values (from 5.5 to 11) on the activities of the purified enzymes was examined in three buffer systems (sodium acetate, sodium phosphate, and Tris-HCl) at room temperature using pNP-palmitate (see esterase assay in Example 20.1) as a substrate at a final substrate concentration of 0.8 mM.

[6] = Stability in the presence of hydrogen peroxide; assay type: physicochemical
Procedure, shortened: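 Purified cutinases held at room temperature with 0, 30, 100, 300, 1500 or 3000 ppm H2O2; residual esterase activity assayed after 1, 2, 3 and 7 days. Activity read as pNP release at 410 nm from pNP-esters (0.8 mM final) in 50 mM Tris/HCl pH 8.0; U = 1 μmol pNP/min, ε 15 mM^−1 cm^−1.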

[7] = assay type: biochemical, Petromyces albertensis; conditions: for Residual ochratoxin A (%): 5 ppm Ochratoxin A, 37° C., relative to incubation without enzyme

B1: Cf-TP: chimeric variant: catalytic and polymer binding domains of CfCUT with T/P-rich linker domain of KrCUT, SEQ ID NO: 29 (protein)
chain: APACPDVELVFARGTGEAAGLGIVGRPLERALAAELPGRTVVATAVDYAASSSQASAGPGSGDMVAKVRSRAAACPGTQFVLGGYSQGATVTDLALGIRTGVTAGTALPEDLAARVAAVVVYGNPLGLTRRTIAQAAPAFATRTVEYCNAGDPVCEPGGGRFTAHITYATNGTVLEGARFAAARVTAAGTPTTPTPTPTPTPVPTTCVTASSLQHVRDGRAYPLWMRTYARGSGDPLGVLSSRTVVSLQADGTDTWRKVAAC
modifications: YebF carrier; Cf-TP variant
activity of crude culture supernatant [1]: 0.6 U/mL | Enzymatic activity of the purified variant ([2]; pNP-palmitate): 30 ± 2 U/mg | Spec. Act. (U/mg) ([2]; towards pNP-palmitate (standard assay)): 30 ± 2 U/mg | refolding ([3]; CD at 222 nm): some refolding | melting temperature (Tm) ([3]; CD at 222 nm, unfolding): 56.6 °C | Tm (° C.) ([3]; estimated using CD-spectroscopy): 57 ± 1 °C | Relative activity, pNP-acetate (C2) [4]: 5% | Relative activity, pNP-butyrate (C4) [4]: 80 ± 3% | Relative activity, pNP-caprylate (C8) [4]: 33 ± 1% | Relative activity, pNP-decanoate (C10) [4]: 66 ± 8% | Relative activity, pNP-myristate (C14) [4]: 40 ± 4% | Relative activity, pNP-palmitate (C16) [4]: 100* % | Relative enzymatic activity (%) ([5]; 2-Propanol 5% (v/v)): 93 ± 1% | Relative enzymatic activity (%) ([5]; 2-Propanol 10% (v/v)): 92 ± 2% | Relative enzymatic activity (%) ([5]; Acetone 1% (v/v)): 103 ± 12% | Relative enzymatic activity (%) ([5]; Acetone 5% (v/v)): 112 ± 10% | Relative enzymatic activity (%) ([5]; Acetone 10% (v/v)): 109 ± 6% | Relative enzymatic activity (%) ([5]; Dimethyl sulfoxide (DMSO) 10% (v/v)): 150 ± 14% | Relative enzymatic activity (%) ([5]; Dimethyl sulfoxide (DMSO) 20% (v/v)): 146 ± 23% | Relative enzymatic activity (%) ([5]; Dimethyl sulfoxide (DMSO) 30% (v/v)): 129 ± 18% | Relative enzymatic activity (%) ([5]; Dimethylformamide (DMF) 5% (v/v)): 134 ± 10% | Relative enzymatic activity (%) ([5]; Methanol 10% (v/v)): 121 ± 14% | Relative enzymatic activity (%) ([5]; Methanol 20% (v/v)): 94 ± 1% | pH opt. (pH dependence of enzymes): 9.5 | Relative activity (%) (pH dependence of enzymes; pH 6.5, sodium phosphate buffer): 12 ± 1% | Relative activity (%) (pH dependence of enzymes; pH 7.0, sodium phosphate buffer): 22 ± 1% | Relative activity (%) (pH dependence of enzymes; pH 7.5, sodium phosphate buffer): 36 ± 1% | Relative activity (%) (pH dependence of enzymes; pH 8.0, Tris/HCl): 65 ± 7% | Relative activity (%) (pH dependence of enzymes; pH 8.5, Tris/HCl): 88 ± 8% | Relative activity (%) (pH dependence of enzymes; pH 9.0, Tris/HCl): 95 ± 3% | Relative activity (%) (pH dependence of enzymes; pH 9.5, Tris/HCl): 100* % | Relative activity (%) (pH dependence of enzymes; pH 10, Tris/HCl): 35 ± 4% | Relative activity (%) after exposure to hydrogen peroxide ([6]; H2O2 30 ppm, Day 0): 97 ± 1% | Relative activity (%) after exposure to hydrogen peroxide ([6]; H2O2 30 ppm, Day 1): 89 ± 4% | Relative activity (%) after exposure to hydrogen peroxide ([6]; H2O2 30 ppm, Day 2): 78 ± 3% | Relative activity (%) after exposure to hydrogen peroxide ([6]; H2O2 30 ppm, Day 3): 86 ± 2% | Relative activity (%) after exposure to hydrogen peroxide ([6]; H2O2 30 ppm, Day 7): 65 ± 7% | Relative activity (%) after exposure to hydrogen peroxide ([6]; H2O2 100 ppm, Day 0): 98 ± 6% | Relative activity (%) after exposure to hydrogen peroxide ([6]; H2O2 100 ppm, Day 1): 91 ± 3% | Relative activity (%) after exposure to hydrogen peroxide ([6]; H2O2 100 ppm, Day 2): 89 ± 7% | Relative activity (%) after exposure to hydrogen peroxide ([6]; H2O2 100 ppm, Day 3): 94 ± 7% | Relative activity (%) after exposure to hydrogen peroxide ([6]; H2O2 100 ppm, Day 7): 74 ± 6% | Relative activity (%) after exposure to hydrogen peroxide ([6]; H2O2 300 ppm, Day 0): 95 ± 6% | Relative activity (%) after exposure to hydrogen peroxide ([6]; H2O2 300 ppm, Day 1): 88 ± 3% | Relative activity (%) after exposure to hydrogen peroxide ([6]; H2O2 300 ppm, Day 2): 85 ± 12% | Relative activity (%) after exposure to hydrogen peroxide ([6]; H2O2 300 ppm, Day 3): 98 ± 3% | Relative activity (%) after exposure to hydrogen peroxide ([6]; H2O2 300 ppm, Day 7): 77 ± 5% | Relative activity (%) after exposure to hydrogen peroxide ([6]; H2O2 1,500 ppm, Day 0): 95 ± 9% | Relative activity (%) after exposure to hydrogen peroxide ([6]; H2O2 1,500 ppm, Day 1): 89 ± 3% | Relative activity (%) after exposure to hydrogen peroxide ([6]; H2O2 1,500 ppm, Day 2): 88 ± 6% | Relative activity (%) after exposure to hydrogen peroxide ([6]; H2O2 1,500 ppm, Day 3): 87 ± 4% | Relative activity (%) after exposure to hydrogen peroxide ([6]; H2O2 1,500 ppm, Day 7): 68 ± 7% | Relative activity (%) after exposure to hydrogen peroxide ([6]; H2O2 3,000 ppm, Day 0): 80% and 80 ± 2% | Relative activity (%) after exposure to hydrogen peroxide ([6]; H2O2 3,000 ppm, Day 1): 74 ± 5% | Relative activity (%) after exposure to hydrogen peroxide ([6]; H2O2 3,000 ppm, Day 2): 77 ± 2% | Relative activity (%) after exposure to hydrogen peroxide ([6]; H2O2 3,000 ppm, Day 3): 78 ± 5% | Relative activity (%) after exposure to hydrogen peroxide ([6]; H2O2 3,000 ppm, Day 7): 57% and 57 ± 5% | Residual ochratoxin A (%) ([7]; 1 h): 5% | Residual ochratoxin A (%) ([7]; 4 h): 0% | Residual ochratoxin A (%) ([7]; 24 h): 0% | Ochratoxin A degraded ([7]; after 4 hours): 100% | Ochratoxin A Degradation per U and h ([7]; per 1 U of enzyme (pNP standard test) and hour at 37° C.): 98 µmol
